Target: BSA-glycopolymer conjugate 10 (glycoprotein mimic 10) (bovine) (UniProt P02769)
Experiment: SPR

Chain of UniProt P02769 (P02769 25-607): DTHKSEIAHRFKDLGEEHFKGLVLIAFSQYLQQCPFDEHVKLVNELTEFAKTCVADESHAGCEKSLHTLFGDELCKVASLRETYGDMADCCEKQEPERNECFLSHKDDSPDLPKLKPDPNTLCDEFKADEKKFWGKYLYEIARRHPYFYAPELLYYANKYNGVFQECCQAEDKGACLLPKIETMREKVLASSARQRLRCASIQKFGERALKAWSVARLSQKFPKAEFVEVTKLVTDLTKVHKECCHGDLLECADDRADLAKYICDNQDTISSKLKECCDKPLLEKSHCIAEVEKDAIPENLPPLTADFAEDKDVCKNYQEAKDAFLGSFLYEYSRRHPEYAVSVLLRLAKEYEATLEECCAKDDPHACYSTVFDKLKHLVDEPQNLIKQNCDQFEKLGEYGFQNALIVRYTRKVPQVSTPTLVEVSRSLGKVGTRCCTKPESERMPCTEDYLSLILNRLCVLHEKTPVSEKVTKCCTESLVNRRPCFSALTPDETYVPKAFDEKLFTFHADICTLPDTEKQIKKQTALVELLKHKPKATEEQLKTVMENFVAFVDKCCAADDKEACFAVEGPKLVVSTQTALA

koff: 0.00073 s⁻¹
kon: 120000 M⁻¹ s⁻¹
Substance: recombinant rat mannose-binding lectin (MBL) (from UniProt P19999 18-238) (natural protein)

Source: PMC2702692
